Data from the supplement of paper PMC10567573.

B1: DCAF4 (parent)
chain: TTKCVRQYEGHVNEYAYLPLHVHE

Variants of: B1
Assay: protein stability index of a GFP-peptide fusion (GPS, HEK-293T) (PSI 1-6); higher = more stable
Settings: c terminus: a fixed tail appended
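Further: lentivirally expressed fusions sorted by FACS into six bins by GFP to DsRed ratio, PSI derived from sequencing read proportions per bin multiplied by bin number.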

| Variant | protein stability index |
| --- | --- |
| TTKCVRQYEGHVNEYAYLPSHVHE [L20S] | 3.13 |
| TTKCVRQYEGHVNEYAYLPYHVHE [L20Y] | 2.32 |
| TTKCVRQYEGHVNEYAYLPLHVHH [E24H] | 2.23 |
| TTKCVRQYEGHVNEYAYLPLHVHS [E24S] | 2.07 |
| TTKCVRQYEGHVNEYAYLPLHVHD [E24D] | 2.84 |
| TTKCVRQYEGHVNEYAYLPLHVHM [E24M] | 1.84 |
| TTKCVRQYEGHVNEYAYLPLHVHQ [E24Q] | 2.29 |
| TTKCVRQYEGHVNEYAYLPLHVHY [E24Y] | 1.89 |
| TTKCVRQYEGHVNEYAYLPLHVHR [E24R] | 2.18 |
| TTKCVRQYEGHVNEYAYLPLHVHN [E24N] | 2.46 |
| TTKCVRQYEGHVNEYAYLPLHVHL [E24L] | 2.14 |
| TTKCVRQYEGHVNEYAYLPLHVHW [E24W] | 2.67 |
| TTKCVRQYEGHVNEYAYLPLHVHV [E24V] | 2.02 |
| TTKCVRQYEGHVNEYAYLPLHVHF [E24F] | 2.85 |
| TTKCVRQYEGHVNEYAYLPLHVHI [E24I] | 2.1 |
| TTKCVRQYEGHVNEYAYLPLHVHK [E24K] | 2.29 |
| TTKCVRQYEGHVNEYAYLPLHVHG [E24G] | 2.75 |
| TTKCVRQYEGHVNEYAYLPLHVHT [E24T] | 2.1 |
| TTKCVRQYEGHVNEYAYLPLHVHC [E24C] | 2.25 |
| TTKCVRQYEGHVNEYAYLPLHVHP [E24P] | 2.24 |
| TTKCVRQYEGHVNEYAYLPLHVHA [E24A] | 1.17 |
| TTKCVRQYEGHVNEYAYLPLHCHE [V22C] | 2.54 |
| TTKCVRQYEGHVNEYAYLPLHNHE [V22N] | 3.19 |
| TTKCVRQYEGHVNEYAYLPLHMHE [V22M] | 3.06 |

| Variant | protein stability index |
| --- | --- |
| TTKCVRQYEGHVNEYAYLPLHYHE [V22Y] | 2.43 |
| TTKCVRQYEGHVNEYAYLPLHIHE [V22I] | 2.42 |
| TTKCVRQYEGHVNEYAYLPLHAHE [V22A] | 2.79 |
| TTKCVRQYEGHVNEYAYLPLHEHE [V22E] | 3.65 |
| TTKCVRQYEGHVNEYAYLPLHLHE [V22L] | 2.54 |
| TTKCVRQYEGHVNEYAYLPLHGHE [V22G] | 2.13 |
| TTKCVRQYEGHVNEYAYLPLHWHE [V22W] | 2.61 |
| TTKCVRQYEGHVNEYAYLPLHRHE [V22R] | 2.58 |
| TTKCVRQYEGHVNEYAYLPLHDHE [V22D] | 3.85 |
| TTKCVRQYEGHVNEYAYLPLHQHE [V22Q] | 3.3 |
| TTKCVRQYEGHVNEYAYLPLHKHE [V22K] | 3.27 |
| TTKCVRQYEGHVNEYAYLPLHHHE [V22H] | 2.96 |
| TTKCVRQYEGHVNEYAYLPLHPHE [V22P] | 2.63 |
| TTKCVRQYEGHVNEYAYLPLHFHE [V22F] | 2.01 |
| TTKCVRQYEGHVNEYAYLPLHTHE [V22T] | 3.12 |
| TTKCVRQYEGHVNEYAYLPLHSHE [V22S] | 3.24 |
| TTKCVRQYEGHVNEYAYLPLHVRE [H23R] | 2.48 |
| TTKCVRQYEGHVNEYAYLPLHVGE [H23G] | 2.76 |
| TTKCVRQYEGHVNEYAYLPLHVPE [H23P] | 3.32 |
| TTKCVRQYEGHVNEYAYLPLHVTE [H23T] | 2.37 |
| TTKCVRQYEGHVNEYAYLPLHVFE [H23F] | 1.46 |
| TTKCVRQYEGHVNEYAYLPLHVCE [H23C] | 2.52 |
| TTKCVRQYEGHVNEYAYLPLHVME [H23M] | 2.12 |
| TTKCVRQYEGHVNEYAYLPLHVWE [H23W] | 1.9 |

| Variant | protein stability index |
| --- | --- |
| TTKCVRQYEGHVNEYAYLPLHVEE [H23E] | 3.21 |
| TTKCVRQYEGHVNEYAYLPLHVVE [H23V] | 2.19 |
| TTKCVRQYEGHVNEYAYLPLHVDE [H23D] | 3.45 |
| TTKCVRQYEGHVNEYAYLPLHVKE [H23K] | 3.44 |
| TTKCVRQYEGHVNEYAYLPLHVLE [H23L] | 2.51 |
| TTKCVRQYEGHVNEYAYLPLHVAE [H23A] | 2.78 |
| TTKCVRQYEGHVNEYAYLPLHVSE [H23S] | 2.73 |
| TTKCVRQYEGHVNEYAYLPLHVIE [H23I] | 3.56 |
| TTKCVRQYEGHVNEYAYLPLHVQE [H23Q] | 3.38 |
| TTKCVRQYEGHVNEYAYLPLHVNE [H23N] | 2.81 |
| TTKCVRQYEGHVNEYAYLPLHVYE [H23Y] | 2.24 |
| TTKCVRQYEGHVNEYAYLVLHVHE [P19V] | 2.22 |
| TTKCVRQYEGHVNEYAYLTLHVHE [P19T] | 1.53 |
| TTKCVRQYEGHVNEYAYLGLHVHE [P19G] | 2.26 |
| TTKCVRQYEGHVNEYAYLNLHVHE [P19N] | 2.33 |
| TTKCVRQYEGHVNEYAYLKLHVHE [P19K] | 1.87 |
| TTKCVRQYEGHVNEYAYLLLHVHE [P19L] | 2.16 |
| TTKCVRQYEGHVNEYAYLFLHVHE [P19F] | 1.71 |
| TTKCVRQYEGHVNEYAYLWLHVHE [P19W] | 2.57 |
| TTKCVRQYEGHVNEYAYLMLHVHE [P19M] | 2.47 |
| TTKCVRQYEGHVNEYAYLELHVHE [P19E] | 1.82 |
| TTKCVRQYEGHVNEYAYLSLHVHE [P19S] | 1.46 |
| TTKCVRQYEGHVNEYAYLILHVHE [P19I] | 2.46 |
| TTKCVRQYEGHVNEYAYLQLHVHE [P19Q] | 1.75 |

| Variant | protein stability index |
| --- | --- |
| TTKCVRQYEGHVNEYAYLHLHVHE [P19H] | 1.96 |
| TTKCVRQYEGHVNEYAYLYLHVHE [P19Y] | 2.67 |
| TTKCVRQYEGHVNEYAYLRLHVHE [P19R] | 1.91 |
| TTKCVRQYEGHVNEYAYLPLIVHE [H21I] | 2.12 |
| TTKCVRQYEGHVNEYAYLPLAVHE [H21A] | 2.58 |
| TTKCVRQYEGHVNEYAYLPLQVHE [H21Q] | 2.66 |
| TTKCVRQYEGHVNEYAYLPLYVHE [H21Y] | 1.9 |
| TTKCVRQYEGHVNEYAYLPLRVHE [H21R] | 2.69 |
| TTKCVRQYEGHVNEYAYLPLFVHE [H21F] | 1.87 |
| TTKCVRQYEGHVNEYAYLPLPVHE [H21P] | 2.63 |
| TTKCVRQYEGHVNEYAYLPLVVHE [H21V] | 2.25 |
| TTKCVRQYEGHVNEYAYLPLTVHE [H21T] | 2.8 |
| TTKCVRQYEGHVNEYAYLPLCVHE [H21C] | 2.56 |
| TTKCVRQYEGHVNEYAYLPLMVHE [H21M] | 2.46 |
| TTKCVRQYEGHVNEYAYLPLWVHE [H21W] | 1.75 |
| TTKCVRQYEGHVNEYAYLPLLVHE [H21L] | 2.2 |
| TTKCVRQYEGHVNEYAYLPLKVHE [H21K] | 2.16 |
| TTKCVRQYEGHVNEYAYLPLEVHE [H21E] | 3.27 |
| TTKCVRQYEGHVNEYAYLPLSVHE [H21S] | 3.05 |
| TTKCVRQYEGHVNEYAYLPLNVHE [H21N] | 3.33 |
| TTKCVRQYEGHVNEYAYLPLDVHE [H21D] | 3.55 |
| TTKCVRQYEGHVNEYAYLPLGVHE [H21G] | 2.06 |
